Results: article PMC3463815 (Scientific Reports, 2012)

Target: T1, VEGF_(34-121), 88-residue VEGF fragment displayed on S. carnosus (Homo sapiens)
T1 chain: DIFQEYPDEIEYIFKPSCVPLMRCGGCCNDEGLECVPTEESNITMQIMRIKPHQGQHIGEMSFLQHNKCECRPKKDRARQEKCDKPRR
Experiment: flow cytometry on cells

binding result: binds
B1: Avastin (antibody, V domains shown)
VH: EVQLVESGGGLVQPGGSLRLSCAASGYTFTNYGMNWVRQAPGKGLEWVGWINTYTGEPTYAADFKRRFTFSLDTSKSTAYLQMNSLRAEDTAVYYCAKYPHYYGSSHWYFDVWGQGTLVTVSS
VL: DIQMTQSPSSLSASVGDRVTITCSASQDISNYLNWYQQKPGKAPKVLIYFTSSLHSGVPSRFSGSGSGTDFTLTISSLQPEDFATYYCQQYSTVPWTFGQGTKVEIK
